The values that follow come from the supplement of paper PMC10567573.

The labels stand for the following.
B1: PBXIP1 (parent)
chain: EKQKQPRWREGTKDSHDPLPSWAE
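Also: lentivirally expressed fusions sorted by FACS into six bins by GFP to DsRed ratio, PSI derived from sequencing read proportions per bin multiplied by bin number.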

In this series the parent is B1. Put plainly: protein stability index of a GFP-peptide fusion (GPS, HEK-293T) (PSI 1-6); higher = more stable. To be noted: c terminus: a fixed tail appended.
Regarding EKQAQPRWREGTKDSHDPLPSWAE [K4A], the protein stability index is 1.72.

For the variant EKQEQPRWREGTKDSHDPLPSWAE [K4E], the protein stability index is 1.59.

Regarding EKQPQPRWREGTKDSHDPLPSWAE [K4P], the protein stability index was 1.56.

In the case of EKQDQPRWREGTKDSHDPLPSWAE [K4D], the protein stability index stood at 1.72.

Turning to EKQFQPRWREGTKDSHDPLPSWAE [K4F], the protein stability index was determined as 1.99.

On to EKQSQPRWREGTKDSHDPLPSWAE [K4S], for which the protein stability index amounted to 1.85.

On to EKQYQPRWREGTKDSHDPLPSWAE [K4Y], for which the protein stability index came to 3.

For the variant EKQCQPRWREGTKDSHDPLPSWAE [K4C], the protein stability index was 2.63.

Consider EKQGQPRWREGTKDSHDPLPSWAE [K4G], for which the protein stability index turned out to be 1.89.

For the variant EKQVQPRWREGTKDSHDPLPSWAE [K4V], the protein stability index stood at 1.21.

Take EKQIQPRWREGTKDSHDPLPSWAE [K4I]: the protein stability index is 3.8.

EKQNQPRWREGTKDSHDPLPSWAE [K4N]: the protein stability index came to 2.02.

Regarding EKQQQPRWREGTKDSHDPLPSWAE [K4Q], the protein stability index is 1.92.

For EKQMQPRWREGTKDSHDPLPSWAE [K4M], the protein stability index worked out at 1.54.

Turning to EKQRQPRWREGTKDSHDPLPSWAE [K4R], the protein stability index is 2.07.

Regarding EKQTQPRWREGTKDSHDPLPSWAE [K4T], the protein stability index was 1.92.

With EKQWQPRWREGTKDSHDPLPSWAE [K4W], the protein stability index is 1.

Turning to EKQHQPRWREGTKDSHDPLPSWAE [K4H], the protein stability index is 2.66.

As for EKCKQPRWREGTKDSHDPLPSWAE [Q3C], the protein stability index is 2.21.

Regarding EKPKQPRWREGTKDSHDPLPSWAE [Q3P], the protein stability index was 1.63.

On to EKWKQPRWREGTKDSHDPLPSWAE [Q3W], for which the protein stability index turned out to be 1.41.

As for EKYKQPRWREGTKDSHDPLPSWAE [Q3Y], the protein stability index is 1.32.

As to EKLKQPRWREGTKDSHDPLPSWAE [Q3L], the protein stability index was determined as 1.59.

Take EKHKQPRWREGTKDSHDPLPSWAE [Q3H]: the protein stability index came to 1.78.

As to EKTKQPRWREGTKDSHDPLPSWAE [Q3T], the protein stability index stood at 1.89.

Consider EKRKQPRWREGTKDSHDPLPSWAE [Q3R], for which the protein stability index was determined as 2.14.

As for EKVKQPRWREGTKDSHDPLPSWAE [Q3V], the protein stability index was 1.34.

Turning to EKGKQPRWREGTKDSHDPLPSWAE [Q3G], the protein stability index stood at 2.03.

For the variant EKSKQPRWREGTKDSHDPLPSWAE [Q3S], the protein stability index stood at 1.55.

In the case of EKNKQPRWREGTKDSHDPLPSWAE [Q3N], the protein stability index was determined as 2.58.

As for EKQKQFRWREGTKDSHDPLPSWAE [P6F], the protein stability index was found to be 2.43.

On to EKQKQSRWREGTKDSHDPLPSWAE [P6S], for which the protein stability index is 2.4.

Turning to EKQKQWRWREGTKDSHDPLPSWAE [P6W], the protein stability index stood at 1.98.

As for EKQKQCRWREGTKDSHDPLPSWAE [P6C], the protein stability index turned out to be 1.48.

On to EKQKQLRWREGTKDSHDPLPSWAE [P6L], for which the protein stability index turned out to be 2.79.

In the case of EKQKQERWREGTKDSHDPLPSWAE [P6E], the protein stability index worked out at 1.89.

Consider EKQKQDRWREGTKDSHDPLPSWAE [P6D], for which the protein stability index came out at 2.48.

For the variant EKQKQHRWREGTKDSHDPLPSWAE [P6H], the protein stability index was 2.53.

With EKQKQGRWREGTKDSHDPLPSWAE [P6G], the protein stability index is 2.11.

With EKQKQYRWREGTKDSHDPLPSWAE [P6Y], the protein stability index is 3.67.

On to EKQKQTRWREGTKDSHDPLPSWAE [P6T], for which the protein stability index came out at 3.31.

Take EKQKQARWREGTKDSHDPLPSWAE [P6A]: the protein stability index amounted to 1.3.

As to EKQKQPREREGTKDSHDPLPSWAE [W8E], the protein stability index amounted to 3.08.

Take EKQKQPRDREGTKDSHDPLPSWAE [W8D]: the protein stability index stood at 3.2.

Take EKQKQPRCREGTKDSHDPLPSWAE [W8C]: the protein stability index was found to be 2.31.

Consider EKQKQPRAREGTKDSHDPLPSWAE [W8A], for which the protein stability index is 2.09.

On to EYQKQPRWREGTKDSHDPLPSWAE [K2Y], for which the protein stability index was determined as 2.81.

ENQKQPRWREGTKDSHDPLPSWAE [K2N]: the protein stability index was 1.46.

Turning to ESQKQPRWREGTKDSHDPLPSWAE [K2S], the protein stability index was found to be 2.15.

Take EGQKQPRWREGTKDSHDPLPSWAE [K2G]: the protein stability index was 2.97.

With EHQKQPRWREGTKDSHDPLPSWAE [K2H], the protein stability index stood at 1.66.

Consider EQQKQPRWREGTKDSHDPLPSWAE [K2Q], for which the protein stability index is 2.69.

Turning to EWQKQPRWREGTKDSHDPLPSWAE [K2W], the protein stability index is 1.43.

EFQKQPRWREGTKDSHDPLPSWAE [K2F]: the protein stability index is 1.85.

As for ECQKQPRWREGTKDSHDPLPSWAE [K2C], the protein stability index turned out to be 2.96.

On to EIQKQPRWREGTKDSHDPLPSWAE [K2I], for which the protein stability index stood at 2.63.

As to ERQKQPRWREGTKDSHDPLPSWAE [K2R], the protein stability index amounted to 2.02.

As to EDQKQPRWREGTKDSHDPLPSWAE [K2D], the protein stability index was found to be 2.04.

For EEQKQPRWREGTKDSHDPLPSWAE [K2E], the protein stability index came to 3.03.

For the variant EPQKQPRWREGTKDSHDPLPSWAE [K2P], the protein stability index is 1.77.

Turning to EKQKMPRWREGTKDSHDPLPSWAE [Q5M], the protein stability index stood at 1.55.

Take EKQKDPRWREGTKDSHDPLPSWAE [Q5D]: the protein stability index is 1.99.

In the case of EKQKKPRWREGTKDSHDPLPSWAE [Q5K], the protein stability index was 2.18.

As to EKQKEPRWREGTKDSHDPLPSWAE [Q5E], the protein stability index was 2.66.

As to EKQKYPRWREGTKDSHDPLPSWAE [Q5Y], the protein stability index amounted to 2.37.

Turning to EKQKNPRWREGTKDSHDPLPSWAE [Q5N], the protein stability index was found to be 2.1.

As to EKQKRPRWREGTKDSHDPLPSWAE [Q5R], the protein stability index came to 2.57.

Turning to EKQKLPRWREGTKDSHDPLPSWAE [Q5L], the protein stability index is 1.82.

As for EKQKPPRWREGTKDSHDPLPSWAE [Q5P], the protein stability index was 1.68.

Turning to EKQKGPRWREGTKDSHDPLPSWAE [Q5G], the protein stability index turned out to be 1.99.

EKQKCPRWREGTKDSHDPLPSWAE [Q5C]: the protein stability index is 3.72.

EKQKAPRWREGTKDSHDPLPSWAE [Q5A]: the protein stability index was found to be 3.71.

Turning to EKQKFPRWREGTKDSHDPLPSWAE [Q5F], the protein stability index worked out at 2.09.

Take EKQKHPRWREGTKDSHDPLPSWAE [Q5H]: the protein stability index turned out to be 2.11.

LKQKQPRWREGTKDSHDPLPSWAE [E1L]: the protein stability index was 2.19.

In the case of KKQKQPRWREGTKDSHDPLPSWAE [E1K], the protein stability index stood at 2.33.

As to QKQKQPRWREGTKDSHDPLPSWAE [E1Q], the protein stability index amounted to 2.

As to CKQKQPRWREGTKDSHDPLPSWAE [E1C], the protein stability index came out at 2.08.

With FKQKQPRWREGTKDSHDPLPSWAE [E1F], the protein stability index was found to be 1.4.

Consider IKQKQPRWREGTKDSHDPLPSWAE [E1I], for which the protein stability index worked out at 2.16.

Consider TKQKQPRWREGTKDSHDPLPSWAE [E1T], for which the protein stability index is 2.38.

Regarding HKQKQPRWREGTKDSHDPLPSWAE [E1H], the protein stability index is 2.64.

As for MKQKQPRWREGTKDSHDPLPSWAE [E1M], the protein stability index is 1.7.

PKQKQPRWREGTKDSHDPLPSWAE [E1P]: the protein stability index amounted to 1.22.

AKQKQPRWREGTKDSHDPLPSWAE [E1A]: the protein stability index was found to be 2.67.

As to RKQKQPRWREGTKDSHDPLPSWAE [E1R], the protein stability index was found to be 2.19.

For the variant GKQKQPRWREGTKDSHDPLPSWAE [E1G], the protein stability index amounted to 1.66.

Turning to EKQKQPAWREGTKDSHDPLPSWAE [R7A], the protein stability index worked out at 1.59.

As for EKQKQPGWREGTKDSHDPLPSWAE [R7G], the protein stability index came out at 2.14.

Consider EKQKQPCWREGTKDSHDPLPSWAE [R7C], for which the protein stability index was determined as 5.92.

EKQKQPWWREGTKDSHDPLPSWAE [R7W]: the protein stability index was found to be 2.53.

Consider EKQKQPNWREGTKDSHDPLPSWAE [R7N], for which the protein stability index came out at 3.14.

With EKQKQPSWREGTKDSHDPLPSWAE [R7S], the protein stability index worked out at 1.23.

With EKQKQPDWREGTKDSHDPLPSWAE [R7D], the protein stability index is 2.47.
